Measured values published in article PMC5732302 (2017).

Molecular target: dynein (Saccharomyces cerevisiae, UniProt P36022)
Sequence (P36022 whole entry): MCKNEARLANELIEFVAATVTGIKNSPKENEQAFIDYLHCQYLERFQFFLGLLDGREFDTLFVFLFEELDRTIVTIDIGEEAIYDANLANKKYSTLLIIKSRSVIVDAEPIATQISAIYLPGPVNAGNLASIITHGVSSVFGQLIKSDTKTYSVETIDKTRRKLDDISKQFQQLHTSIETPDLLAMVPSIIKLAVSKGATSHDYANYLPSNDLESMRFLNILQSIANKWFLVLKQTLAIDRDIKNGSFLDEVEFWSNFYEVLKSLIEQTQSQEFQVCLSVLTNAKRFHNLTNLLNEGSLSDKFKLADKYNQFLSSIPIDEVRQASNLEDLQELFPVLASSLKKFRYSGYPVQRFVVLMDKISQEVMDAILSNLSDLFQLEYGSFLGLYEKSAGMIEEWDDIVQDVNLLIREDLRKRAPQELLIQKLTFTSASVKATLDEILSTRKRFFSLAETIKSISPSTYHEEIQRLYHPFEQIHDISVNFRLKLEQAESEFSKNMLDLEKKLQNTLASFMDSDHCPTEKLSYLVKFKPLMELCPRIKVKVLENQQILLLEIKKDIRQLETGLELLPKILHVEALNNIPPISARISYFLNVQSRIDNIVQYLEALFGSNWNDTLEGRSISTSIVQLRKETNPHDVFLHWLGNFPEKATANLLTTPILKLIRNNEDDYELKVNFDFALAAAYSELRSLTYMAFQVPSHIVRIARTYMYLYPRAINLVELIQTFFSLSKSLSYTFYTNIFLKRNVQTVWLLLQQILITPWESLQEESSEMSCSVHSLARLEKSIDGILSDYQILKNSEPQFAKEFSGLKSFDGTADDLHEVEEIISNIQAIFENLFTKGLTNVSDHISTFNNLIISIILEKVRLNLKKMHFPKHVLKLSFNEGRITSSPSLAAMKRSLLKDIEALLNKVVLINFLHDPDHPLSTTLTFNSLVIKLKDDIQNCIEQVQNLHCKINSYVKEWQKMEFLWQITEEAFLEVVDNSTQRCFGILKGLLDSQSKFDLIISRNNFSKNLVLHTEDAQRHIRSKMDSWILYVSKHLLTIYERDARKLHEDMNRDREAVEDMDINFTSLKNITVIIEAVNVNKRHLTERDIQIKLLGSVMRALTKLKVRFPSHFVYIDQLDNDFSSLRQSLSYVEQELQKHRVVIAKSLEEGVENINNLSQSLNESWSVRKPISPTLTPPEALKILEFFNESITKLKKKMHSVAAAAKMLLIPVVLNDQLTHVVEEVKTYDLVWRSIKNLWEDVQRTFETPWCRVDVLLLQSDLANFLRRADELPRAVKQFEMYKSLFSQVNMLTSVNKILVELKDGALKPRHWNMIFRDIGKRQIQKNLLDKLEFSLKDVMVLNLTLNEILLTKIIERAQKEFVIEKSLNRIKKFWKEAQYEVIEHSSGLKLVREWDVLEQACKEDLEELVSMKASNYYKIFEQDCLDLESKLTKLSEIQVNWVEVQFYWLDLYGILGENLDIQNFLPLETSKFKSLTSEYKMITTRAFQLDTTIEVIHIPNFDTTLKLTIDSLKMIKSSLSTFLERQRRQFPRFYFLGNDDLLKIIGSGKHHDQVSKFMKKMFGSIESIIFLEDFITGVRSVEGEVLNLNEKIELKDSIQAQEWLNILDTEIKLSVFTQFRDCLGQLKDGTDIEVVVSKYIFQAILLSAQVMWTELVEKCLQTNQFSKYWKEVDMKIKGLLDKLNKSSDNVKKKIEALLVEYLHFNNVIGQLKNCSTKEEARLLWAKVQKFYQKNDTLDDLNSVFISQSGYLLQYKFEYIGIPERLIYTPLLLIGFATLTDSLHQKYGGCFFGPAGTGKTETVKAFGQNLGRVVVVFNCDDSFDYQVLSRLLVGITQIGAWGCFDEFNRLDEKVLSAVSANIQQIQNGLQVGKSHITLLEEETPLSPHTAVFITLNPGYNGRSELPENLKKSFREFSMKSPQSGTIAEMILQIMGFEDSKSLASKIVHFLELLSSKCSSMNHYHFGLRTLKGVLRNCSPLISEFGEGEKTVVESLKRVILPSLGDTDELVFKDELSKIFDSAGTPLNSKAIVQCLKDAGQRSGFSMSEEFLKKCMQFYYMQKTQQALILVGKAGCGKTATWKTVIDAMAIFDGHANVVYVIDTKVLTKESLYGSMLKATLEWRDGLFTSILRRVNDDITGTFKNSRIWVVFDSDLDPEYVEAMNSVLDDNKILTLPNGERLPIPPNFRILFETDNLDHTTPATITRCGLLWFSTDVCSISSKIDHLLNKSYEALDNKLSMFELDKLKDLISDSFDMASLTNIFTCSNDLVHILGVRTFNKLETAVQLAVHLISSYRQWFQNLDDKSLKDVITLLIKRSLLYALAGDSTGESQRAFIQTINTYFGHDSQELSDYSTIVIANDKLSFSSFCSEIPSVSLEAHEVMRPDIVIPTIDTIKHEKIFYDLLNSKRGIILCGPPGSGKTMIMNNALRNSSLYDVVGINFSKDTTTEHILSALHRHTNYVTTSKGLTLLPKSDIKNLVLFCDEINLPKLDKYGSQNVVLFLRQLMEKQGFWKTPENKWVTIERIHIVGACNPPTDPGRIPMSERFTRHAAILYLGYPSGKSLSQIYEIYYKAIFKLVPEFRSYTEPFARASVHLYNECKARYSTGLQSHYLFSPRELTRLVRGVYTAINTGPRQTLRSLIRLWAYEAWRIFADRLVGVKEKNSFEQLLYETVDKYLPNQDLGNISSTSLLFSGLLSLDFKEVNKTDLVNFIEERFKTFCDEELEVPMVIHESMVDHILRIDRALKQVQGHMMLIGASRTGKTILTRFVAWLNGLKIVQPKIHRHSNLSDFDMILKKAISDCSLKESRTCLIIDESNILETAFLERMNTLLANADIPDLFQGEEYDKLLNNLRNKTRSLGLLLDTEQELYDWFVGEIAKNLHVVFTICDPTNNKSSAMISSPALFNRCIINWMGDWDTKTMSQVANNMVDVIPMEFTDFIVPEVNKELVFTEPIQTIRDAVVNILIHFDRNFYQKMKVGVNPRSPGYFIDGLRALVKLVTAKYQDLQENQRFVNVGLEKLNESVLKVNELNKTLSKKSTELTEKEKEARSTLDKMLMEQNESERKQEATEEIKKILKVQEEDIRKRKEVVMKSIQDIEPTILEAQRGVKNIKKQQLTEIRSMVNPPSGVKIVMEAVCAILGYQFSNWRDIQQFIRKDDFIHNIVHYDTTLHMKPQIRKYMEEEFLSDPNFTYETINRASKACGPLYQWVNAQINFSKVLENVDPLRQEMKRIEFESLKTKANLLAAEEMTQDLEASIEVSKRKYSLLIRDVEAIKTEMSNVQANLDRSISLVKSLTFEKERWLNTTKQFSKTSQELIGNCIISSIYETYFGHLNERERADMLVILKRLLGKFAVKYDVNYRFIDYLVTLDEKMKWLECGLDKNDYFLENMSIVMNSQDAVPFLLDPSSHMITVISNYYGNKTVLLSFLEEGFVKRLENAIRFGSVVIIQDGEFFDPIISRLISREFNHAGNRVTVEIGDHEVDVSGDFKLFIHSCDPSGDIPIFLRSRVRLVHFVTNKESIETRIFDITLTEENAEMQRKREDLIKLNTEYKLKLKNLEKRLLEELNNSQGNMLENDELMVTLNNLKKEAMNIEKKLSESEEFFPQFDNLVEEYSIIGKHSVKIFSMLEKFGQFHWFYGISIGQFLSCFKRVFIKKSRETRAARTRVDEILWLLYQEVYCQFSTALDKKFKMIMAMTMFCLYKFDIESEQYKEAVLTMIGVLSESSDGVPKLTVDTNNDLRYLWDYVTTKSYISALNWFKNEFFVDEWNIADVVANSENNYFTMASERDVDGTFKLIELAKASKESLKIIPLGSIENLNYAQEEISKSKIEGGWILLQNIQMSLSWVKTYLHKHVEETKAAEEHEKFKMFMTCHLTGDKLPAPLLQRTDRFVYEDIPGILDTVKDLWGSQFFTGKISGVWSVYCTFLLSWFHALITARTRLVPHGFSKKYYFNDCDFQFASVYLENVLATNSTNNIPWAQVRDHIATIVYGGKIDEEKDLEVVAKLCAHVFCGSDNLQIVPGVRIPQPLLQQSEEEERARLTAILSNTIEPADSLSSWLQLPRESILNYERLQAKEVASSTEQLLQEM

Kd: < 0.2 nM
B1: She1 (protein)
chain: MNDKLQEEHNEKDTTSQINGFTPPHMSIDFHSNNNSNIIETIGVSKRLGNSVLSELDSRASSKFEFLKDQSEQQYNGDKNNEPKSGSYNINEFFQAKHDSQFGQMESLDTHYTLLHTPKRKSQHAIPQDRSDSMKRSRPSRSIPYTTPVVNDITRRIRRLKLRNSLVNGNDIVARARSMQANSNINSIKNTPLSKPKPFMHKPNFLMPTTNSLNKINSAHRNTSSSSTASSIPRSKVHRSISIRDLHAKTKPVERTPVAQGTNSQLKNSVSVFDRLYKQTTFSRSTSMNNLSSGTSAKSKEHTNVKTRLVKSKTSGSLSSNLKQSTATGTKSDRPIWR
